The results in this text go back to paper PMC6651182, “Importance of the Choice of a Recombinant System to Produce Large Amounts of Functional Membrane Protein hERG” (International Journal of Molecular Sciences, 2019).

Data set [1] has as its target T1, hERG(S1-coil) (Homo sapiens, UniProt Q12809, N598Q).
T1 construct: hERG(362-675) + coiled-coil
Kind of data set: Electrophysiology on planar lipid bilayers with purified hERG(S1-coil) (stable HEK, DDM). Type of data set: biochemical. Particulars: samples pre-incubated with 10 µM toxin; lipid bilayer; data not shown. The protocol:
Crude membranes prepared from P. pastoris, Sf9 or stable HEK cells expressing hERG(S1-coil) were solubilized in 50 mM HEPES, pH 7.5, 300 mM KCl containing 1% DPC or DDM and 0.2% cholesteryl-hemisuccinate (CHS, Sigma Aldrich) at slow rotation at +4 °C for 1 h. Samples were centrifuged at 25,000 g for 15 min at +4 °C. […] After transferring to a column and washing the resin with 15 CV of 50 mM HEPES, pH 7.5, 300 mM KCl, 50 mM imidazole, 0.1% (w/v) DPC and 0.02% (w/v) CHS, hERG(S1-coil) was eluted with 250 mM imidazole in the same buffer. For purification of hERG(S1-coil) overexpressed in Sf9 cells in DPC, the supernatant was diluted 2-fold in 50 mM HEPES, pH 7.5 and transferred to a Strep-Tactin column (Strep-TactinSuperflow, IBA, Göttingen, Germany) at a ratio of 1 mL resin for 100 mL supernatant. […] Purified samples were analysed by SDS-PAGE and Western blot and protein concentrations determined by BCA assay.
Planar lipid bilayers were formed at room temperature by painting a solution of azolectin (Type IVS, Sigma Aldrich) at 45 mg/mL in decane across a 200 µm aperture in a polysulfonate cup (Warner Instruments, Hamden, CT, USA) separating two chambers. […] A total of 500 ng of chimeric hERG protein was added in the cis chamber and the resulting channel activity recorded for at least 2 min. […]

The next data set concerns the target hERG-wt (Homo sapiens, UniProt Q12809). Kind of data set: Two-electrode voltage clamp in Xenopus oocytes, inhibition of hERG-wt tail current. Particulars: mean ± SEM, n = 7.
Data set [2] has as its target hERG(S1-coil) (Homo sapiens, UniProt Q12809). In words: Two-electrode voltage clamp in Xenopus oocytes, inhibition of hERG(S1-coil) tail current. Particulars: mean ± SEM, n = 8.
Method: (§1) (A). Current-voltage relationship for hERG-wt and hERG(S1-coil). Currents measured at the end of a 4 seconds long depolarizing pulse (from −70 to 30 mV) were normalized to the maximal current for hERG-wt (n = 21) and hERG(S1-coil) (n = 19). (B). Steady-state voltage-dependence of activation. […] (C).
(§2) Stage V–VI oocytes were removed from female Xenopus under tricaine anaesthesia. […] After intensive washing with OR2 solution, oocytes were injected with RNA preparation (about 30 nL per oocyte) and recorded 2–5 days after injection. Currents were recorded at room temperature using the two-electrode voltage clamp method. Electrodes were pulled from borosilicate glass and filled with 3 M KCl. Currents were measured by a Geneclamp 500 amplifier (Molecular Devices, San Jose, CA, USA) and digitized by a Digidata 1200 converter (Molecular Devices) using Clampex 5 software (Molecular Devices). […] We determined the concentration to obtain the half maximal inhibition (IC50) by measuring the peak tail current recorded during the second pulse at −50 mV in the presence of increasing concentrations of inhibitor and normalized the value to the current measured in the absence of inhibitor. […] The significance of the difference between two results was determined using the unpaired Student’s test set at the 0.01 level.

Method for hERG-wt: as §1, §2

Turning to “BeKm-1 (RPTDIKCSESYQCFPVCKSRFGKTNGRCVNGFCDCF; UniProt Q9BKB7 22-57, looked up)”, in the data set with hERG(S1-coil) [1], the “current at −100 mV” value is on record as “did not have any current”. Further, the IC50 with hERG-wt was found to be 21.7 ± 2.76 nM; with hERG(S1-coil) [2] it was 24.9 ± 3.77 nM.
